B1: NLV2 TCR alpha chain (CDR3α only) (parent)
chain: AGPMKTSYDKVI
partner: NLVGMVATV
B2: NLV2 TCR alpha chain (CDR3α only) (parent)
chain: AGPMKTSYDKVI
partner: MLVPMVATV

Variants of: B1
Test: T-Switch: Jurkat TCRβ−/− cells expressing a CDR3 saturation-mutagenesis library, stained with two peptide-HLA-A*02:01 tetramers (original and novel peptide) plus anti-CD3, FACS-sorted into four gates, gDNA sequenced
Conditions: with HLA-A*02:01 with peptide … (NLV 2-2, the original bait), tetramers 1 µg/mL, 30 min on ice, DP and SW gates expanded about 10 days between rounds ('two to three rounds of selection' in the Methods), gate SP: higher = more of the variant in the gate that binds the original peptide and not the novel one = retained original binding. Fold enrichment of the CDR3 variant in one FACS gate of a two-tetra, unresolved parent, parent is a CDR3 fragment, scale: fold enrichment, numbering: sequential-on-construct, sequence …

In order of falling enrichment:
1. […] (CDR3 as printed); T6V derived by comparing it with the table's wild-type CDR3 AGPMKTSYDKVI  22.1
2. […] (CDR3 as printed); T6P derived by comparing it with the table's wild-type CDR3 AGPMKTSYDKVI  9.39
3. […] (CDR3 as printed); V11I derived by comparing it with the table's wild-type CDR3 AGPMKTSYDKVI  5
4. […] (CDR3 as printed); V11S derived by comparing it with the table's wild-type CDR3 AGPMKTSYDKVI  1.91
5. […] (CDR3 as printed); V11A derived by comparing it with the table's wild-type CDR3 AGPMKTSYDKVI  1.13
6. […] (CDR3 as printed); Y8T derived by comparing it with the table's wild-type CDR3 AGPMKTSYDKVI  0.942
7. […] (CDR3 as printed); V11D derived by comparing it with the table's wild-type CDR3 AGPMKTSYDKVI  0.11
8. […] (CDR3 as printed); Y8E derived by comparing it with the table's wild-type CDR3 AGPMKTSYDKVI  0.105
9. […] (CDR3 as printed); T6L derived by comparing it with the table's wild-type CDR3 AGPMKTSYDKVI  0
10. […] (CDR3 as printed); T6M derived by comparing it with the table's wild-type CDR3 AGPMKTSYDKVI  0
11. […] (CDR3 as printed); T6N derived by comparing it with the table's wild-type CDR3 AGPMKTSYDKVI  0
12. […] (CDR3 as printed); T6Q derived by comparing it with the table's wild-type CDR3 AGPMKTSYDKVI  0
13. […] (CDR3 as printed); T6R derived by comparing it with the table's wild-type CDR3 AGPMKTSYDKVI  0
14. […] (CDR3 as printed); T6S derived by comparing it with the table's wild-type CDR3 AGPMKTSYDKVI  0
15. […] (CDR3 as printed); T6W derived by comparing it with the table's wild-type CDR3 AGPMKTSYDKVI  0
16. […] (CDR3 as printed); T6Y derived by comparing it with the table's wild-type CDR3 AGPMKTSYDKVI  0
17. […] (CDR3 as printed); V11C derived by comparing it with the table's wild-type CDR3 AGPMKTSYDKVI  0
18. […] (CDR3 as printed); V11E derived by comparing it with the table's wild-type CDR3 AGPMKTSYDKVI  0
19. […] (CDR3 as printed); V11F derived by comparing it with the table's wild-type CDR3 AGPMKTSYDKVI  0
20. […] (CDR3 as printed); V11G derived by comparing it with the table's wild-type CDR3 AGPMKTSYDKVI  0
21. […] (CDR3 as printed); V11H derived by comparing it with the table's wild-type CDR3 AGPMKTSYDKVI  0
22. […] (CDR3 as printed); V11K derived by comparing it with the table's wild-type CDR3 AGPMKTSYDKVI  0
23. […] (CDR3 as printed); V11L derived by comparing it with the table's wild-type CDR3 AGPMKTSYDKVI  0
24. […] (CDR3 as printed); V11M derived by comparing it with the table's wild-type CDR3 AGPMKTSYDKVI  0
25. […] (CDR3 as printed); V11N derived by comparing it with the table's wild-type CDR3 AGPMKTSYDKVI  0
26. […] (CDR3 as printed); V11P derived by comparing it with the table's wild-type CDR3 AGPMKTSYDKVI  0
27. […] (CDR3 as printed); V11Q derived by comparing it with the table's wild-type CDR3 AGPMKTSYDKVI  0
28. […] (CDR3 as printed); V11R derived by comparing it with the table's wild-type CDR3 AGPMKTSYDKVI  0
29. […] (CDR3 as printed); V11T derived by comparing it with the table's wild-type CDR3 AGPMKTSYDKVI  0
30. […] (CDR3 as printed); V11W derived by comparing it with the table's wild-type CDR3 AGPMKTSYDKVI  0
31. […] (CDR3 as printed); V11Y derived by comparing it with the table's wild-type CDR3 AGPMKTSYDKVI  0
32. […] (CDR3 as printed); Y8A derived by comparing it with the table's wild-type CDR3 AGPMKTSYDKVI  0
33. […] (CDR3 as printed); Y8C derived by comparing it with the table's wild-type CDR3 AGPMKTSYDKVI  0
34. […] (CDR3 as printed); Y8D derived by comparing it with the table's wild-type CDR3 AGPMKTSYDKVI  0
35. […] (CDR3 as printed); Y8F derived by comparing it with the table's wild-type CDR3 AGPMKTSYDKVI  0
36. […] (CDR3 as printed); Y8G derived by comparing it with the table's wild-type CDR3 AGPMKTSYDKVI  0
37. […] (CDR3 as printed); Y8H derived by comparing it with the table's wild-type CDR3 AGPMKTSYDKVI  0
38. […] (CDR3 as printed); Y8I derived by comparing it with the table's wild-type CDR3 AGPMKTSYDKVI  0
39. […] (CDR3 as printed); Y8K derived by comparing it with the table's wild-type CDR3 AGPMKTSYDKVI  0
40. […] (CDR3 as printed); Y8L derived by comparing it with the table's wild-type CDR3 AGPMKTSYDKVI  0
41. […] (CDR3 as printed); Y8M derived by comparing it with the table's wild-type CDR3 AGPMKTSYDKVI  0
42. […] (CDR3 as printed); Y8N derived by comparing it with the table's wild-type CDR3 AGPMKTSYDKVI  0
43. […] (CDR3 as printed); Y8P derived by comparing it with the table's wild-type CDR3 AGPMKTSYDKVI  0
44. […] (CDR3 as printed); Y8Q derived by comparing it with the table's wild-type CDR3 AGPMKTSYDKVI  0
45. […] (CDR3 as printed); Y8R derived by comparing it with the table's wild-type CDR3 AGPMKTSYDKVI  0
46. […] (CDR3 as printed); Y8S derived by comparing it with the table's wild-type CDR3 AGPMKTSYDKVI  0
47. […] (CDR3 as printed); Y8V derived by comparing it with the table's wild-type CDR3 AGPMKTSYDKVI  0
48. […] (CDR3 as printed); Y8W derived by comparing it with the table's wild-type CDR3 AGPMKTSYDKVI  0

Variants of: B2
Test: as above
Conditions: with HLA-A*02:01 with peptide … (NLV 3-1, the novel peptide), tetramers 1 µg/mL, 30 min on ice, SP, DP and SW gates expanded about 10 days between rounds ('two to three rounds of selection' in the Methods), gate SW: higher = more of the variant in the gate that binds the novel peptide and not the original one = switched binding. Fold enrichment of the CDR3 variant in one FACS gate of a two-tetramer stain, unresolved parent, parent is a CDR3 fragment, scale: fold enrichment, numbering: sequential-on-construct, sequence starts at 1

In order of falling enrichment:
1. […] (CDR3 as printed); A1K derived by comparing it with the table's wild-type CDR3 AGPMKTSYDKVI  1.01
2. […] (CDR3 as printed); A1Y derived by comparing it with the table's wild-type CDR3 AGPMKTSYDKVI  0.533
3. […] (CDR3 as printed); A1C derived by comparing it with the table's wild-type CDR3 AGPMKTSYDKVI  0
4. […] (CDR3 as printed); A1D derived by comparing it with the table's wild-type CDR3 AGPMKTSYDKVI  0
5. […] (CDR3 as printed); A1E derived by comparing it with the table's wild-type CDR3 AGPMKTSYDKVI  0
6. […] (CDR3 as printed); A1F derived by comparing it with the table's wild-type CDR3 AGPMKTSYDKVI  0
7. […] (CDR3 as printed); A1G derived by comparing it with the table's wild-type CDR3 AGPMKTSYDKVI  0
8. […] (CDR3 as printed); A1H derived by comparing it with the table's wild-type CDR3 AGPMKTSYDKVI  0
9. […] (CDR3 as printed); A1I derived by comparing it with the table's wild-type CDR3 AGPMKTSYDKVI  0
10. […] (CDR3 as printed); A1L derived by comparing it with the table's wild-type CDR3 AGPMKTSYDKVI  0
11. […] (CDR3 as printed); A1M derived by comparing it with the table's wild-type CDR3 AGPMKTSYDKVI  0
12. […] (CDR3 as printed); A1N derived by comparing it with the table's wild-type CDR3 AGPMKTSYDKVI  0
13. […] (CDR3 as printed); A1P derived by comparing it with the table's wild-type CDR3 AGPMKTSYDKVI  0
14. […] (CDR3 as printed); A1Q derived by comparing it with the table's wild-type CDR3 AGPMKTSYDKVI  0
15. […] (CDR3 as printed); A1R derived by comparing it with the table's wild-type CDR3 AGPMKTSYDKVI  0
16. […] (CDR3 as printed); A1S derived by comparing it with the table's wild-type CDR3 AGPMKTSYDKVI  0
17. […] (CDR3 as printed); A1T derived by comparing it with the table's wild-type CDR3 AGPMKTSYDKVI  0
18. […] (CDR3 as printed); A1V derived by comparing it with the table's wild-type CDR3 AGPMKTSYDKVI  0
19. […] (CDR3 as printed); A1W derived by comparing it with the table's wild-type CDR3 AGPMKTSYDKVI  0
20. […] (CDR3 as printed); D9A derived by comparing it with the table's wild-type CDR3 AGPMKTSYDKVI  0
21. […] (CDR3 as printed); D9C derived by comparing it with the table's wild-type CDR3 AGPMKTSYDKVI  0
22. […] (CDR3 as printed); D9E derived by comparing it with the table's wild-type CDR3 AGPMKTSYDKVI  0
23. […] (CDR3 as printed); D9F derived by comparing it with the table's wild-type CDR3 AGPMKTSYDKVI  0
24. […] (CDR3 as printed); D9G derived by comparing it with the table's wild-type CDR3 AGPMKTSYDKVI  0
25. […] (CDR3 as printed); D9H derived by comparing it with the table's wild-type CDR3 AGPMKTSYDKVI  0
26. […] (CDR3 as printed); D9I derived by comparing it with the table's wild-type CDR3 AGPMKTSYDKVI  0
27. […] (CDR3 as printed); D9K derived by comparing it with the table's wild-type CDR3 AGPMKTSYDKVI  0
28. […] (CDR3 as printed); D9L derived by comparing it with the table's wild-type CDR3 AGPMKTSYDKVI  0
29. […] (CDR3 as printed); D9M derived by comparing it with the table's wild-type CDR3 AGPMKTSYDKVI  0
30. […] (CDR3 as printed); D9N derived by comparing it with the table's wild-type CDR3 AGPMKTSYDKVI  0
31. […] (CDR3 as printed); D9P derived by comparing it with the table's wild-type CDR3 AGPMKTSYDKVI  0
32. […] (CDR3 as printed); D9Q derived by comparing it with the table's wild-type CDR3 AGPMKTSYDKVI  0
33. […] (CDR3 as printed); D9R derived by comparing it with the table's wild-type CDR3 AGPMKTSYDKVI  0
34. […] (CDR3 as printed); D9S derived by comparing it with the table's wild-type CDR3 AGPMKTSYDKVI  0
35. […] (CDR3 as printed); D9T derived by comparing it with the table's wild-type CDR3 AGPMKTSYDKVI  0

Source: publication PMC13397619
